Data: patent US20250127918A1, “SITE-SELECTIVE CONJUGATION OF A PHARMACEUTICAL AGENT TO AN ANTIBODY USING AN AFFINITY PEPTIDE” (priority 2023, published 2025)

Tests used:
Trastuzumab = molecular target: T1, Trastuzumab (Homo sapiens, UniProt P01857, D239E/L241M); assay: Bioconjugation handle / GLP1 transfer to trastuzumab, analyzed by Q-ToF LC-MS; assay type: biochemical
T1 construct: purchased Syd Labs Inc; MedChemExpress LLC; Bio X Cell
Experimental: The conversion rate for each reaction was calculated by one of the following methods. Determination by LC-MS: Reported yields based on LC-MS spectra were determined by extracting the total ion current (TIC) spectra of all protein-containing species in the chromatogram utilizing Agilent MassHunter 6.0 software with BioConfirm package. These extracted chromatograms were deconvoluted utilizing a maximum entropy algorithm and abundance of each species determined using total ion count.
A reaction solution corresponding to 9.0 μg of IgG was taken into a PCR tube and diluted with Tris buffer (100 mM, pH 8.1) to a final volume of 6 μL. […] Afterward, DTT (200 mM in water, 2 μL) was added, and the mixture was further incubated at 37° C. for 1 hour. Finally, the solution was diluted to a volume of 40 μL with a mixture of water and acetonitrile (95:5), and 8 μL of the diluted solution was injected into LC-MS.
Reactions were performed on a 20 μL scale using 0.2 mL PCR tubes (FIG. 61). First, the electrophile-attached Z33 peptide reagent was dissolved in water to prepare a 2 mg/mL solution. Trastuzumab (MedChemExpress LLC. or Bio X Cell), electrophile-attached Z33 peptide reagent (2 mg/mL), and buffer were added to achieve final concentrations of 10 μM, 200 μM, and values listed in the following table, respectively. If the HEPES was used as a buffer, NaCl solution (4M, 1 uL) was added to the reaction mixture. […] The resulting reaction solution was quenched with a 100 mM glycine buffer of 100 mM Tris buffer and analyzed by LC-MS. Sample preparation for LC-MS analysis was performed in the same manner previously described. […] Therefore, a post-processing step was implemented to remove electrophiles using an Amicon® filter. The reaction mixture was diluted to 200 μL with citrate buffer (100 mM, pH 2.7) and filtered through an Amicon® filter (0.5 mL, 50KMWCO) at 14000 rcf for 7 minutes. […]
Reactions were performed on a 20 μL scale using 0.2 mL PCR tubes (FIG. 61). […] The resulting reaction solution was quenched with a 100 mM Tris buffer and analyzed by LC-MS (FIG. 53, Table 8).

Denosumab (hIgG2) = assay: Small bioconjugation handle installation to other IgGs (Q-ToF LC-MS); assay type: biochemical, human; conditions: 20 equivalents, room temperature, HEPES pH 8.5
Experimental: (§1) First, the electrophile-attached Z33 peptide reagent was dissolved in water to prepare a 2 mg/mL solution.
as §1

Mouse IgG1 = assay: as above; assay type: biochemical; conditions: 20 equivalents, room temperature
Experimental: Reactions were performed on a 10 μL scale using 0.2 mL PCR tubes (FIG. 64). First, the electrophile-attached Z33 peptide reagent was dissolved in water to prepare a 2 mg/mL solution. IgG (human WN1 (prepared as previously described (ChemBioChem, 19, 2039-2044 (2018)), denosumab (Invitrogen), dupilumab (Invitrogen), or mouse IgG1 (Invitrogen, subtype controlled)), electrophile-attached Z33 peptide reagent (2 mg/mL), HEPES buffer (pH 8.5), and NaCl solution were added to achieve final concentrations of 5 μM, 100 μM, 100 mM, and 200 mM. The contents were mixed using a 5 μL pipette and incubated at room temperature in the dark for 24 hours. The resulting reaction solution was quenched with a 100 mM Tris buffer and analyzed by LC-MS (FIGS. 53A to 53D, Table 10). Sample preparation for LC-MS analysis was performed in the same manner as previously described.
Reactions were performed on a 10 μL scale using 0.2 mL PCR tubes. First, the electrophile-attached Z33 peptide reagent was dissolved in water to prepare a 2 mg/mL solution. Denosumab (Invitrogen), dupilumab (Invitrogen), or mouse IgG1 (Invitrogen, subtype controlled)), electrophile-attached Z33 peptide reagent (2 mg/mL), HEPES buffer (pH 8.5), and NaCl solution were added to achieve final concentrations of 5 μM, 100 μM, 100 mM, and 200 mM. […] The resulting reaction solution was quenched with a 100 mM Tris buffer and analyzed by LC-MS. […]

[1] = mouse, in vivo, ip
Experimental: Each sample was weighted and count in a gamma counter (Wizard2, Perkin Elmer LLC, USA) to get the counts per minutes (cpm) for determining the percentage of injected activity per gram (% IA/g) in each organ. Cpm were decay-corrected by using the following formula: A=A0 e((−(ln2)Δt)/T) with A=decay-corrected cpm, A0=raw cpm, Δt=time difference between the injection and the cpm measurement, and T=half-life of the radionuclide (i.e. 78.41 h for Zr-89).

Light chain total conversion (Trastuzumab; 20 equivalents, PBS, room temperature, 24 h): 12% | Light chains modified with the electrophile (Trastuzumab; hIgG1-2, excess (20 eq.) reagent): less than 2% | Modifications incorporated into the heavy chain of Tmab (Trastuzumab; hIgG1 trastuzumab (1 eq.), peptide 20 eq., after 24 h): up to 99%
Sequence: FNMQQQRRFYEALHD PNLNHcyEQRNAKIKSI RDD [PEL-21]
Light chain total conversion (Denosumab (hIgG2)): 1% | Light chain total conversion (Mouse IgG1; HEPES pH 8.5, first column so headed): 2% | Light chain total conversion (Mouse IgG1; HEPES pH 8.5, second column so headed): 69% | Time remaining in specific organs [1]: up to 144 hours
